Test results: article PMC12799421, “Inhibition of constitutive activity of the atypical chemokine receptor 3 by the small-molecule inverse agonist VUF16840” (Molecular Pharmacology, 2025)
One block for each compound: values may come before it.

Legend:
[1] = system: CXCL12 levels; set-up: method as in PMID 33595155, PMID 38819698; conditions: mice, in vivo application; cited from earlier work
[2] = system: CXCL12 levels; conditions: humans; cited from earlier work
[3] = biological target: hCCR3 C-terminally tagged with SmBiT (chemokine receptor screen) (human) (UniProt P51677)
[4] = biological target: CCR3 (Homo sapiens, UniProt P51677); test: NanoBiT β-arrestin2 recruitment to CCR3, concentration-response; format: cell-based; conditions: HEK293T, NanoBiT
Experimental: The pharmacological modulation of all chemokine receptors by VUF16840 was performed according to an established method.[8]^,[23]^,[39] Briefly, β-arrestin2 recruitment to chemokine receptors in response to 1 μM VUF16840 or positive control chemokines was monitored by NanoLuc complementation assay (NanoBiT, Promega). Four hours after transfection, cells were harvested, incubated for 25 minutes at 37 °C with furimazine and distributed into a white 96-well plates (1 × 10^5 cells per well). β-Arrestin2 recruitment was then detected for 20 minutes upon treatment with 1 μM VUF16840 (or increasing concentrations ligand for experiments with CC chemokine receptor [CCR3]) using the Mithras LB940 luminometer (Berthold Technologies). To evaluate the antagonist properties of VUF16840, full agonists of each receptor were added after the 20-minute incubation with VUF16840. Signal from wells treated with full agonist only was defined as 100% activity and signals from wells treated with no agonist were used to set 0% activity.
Supplemental Figure 5 – Modulation of CCR3 receptor by VUF16840. Recruitment of β-arrestin2 towards CCR3 chemokine receptor was measured using a NLuc complementation assay in HEK293T cells. The concentration-dependent activation of the CCR3 was determined for VUF16840 and the endogenous agonist CCL13. All values depict the mean ± SD of ≥ 3 experiments.

[5] = biological target: T1, ACKR3 (Homo sapiens, UniProt P25106); test: BRET β-arrestin2 recruitment to hACKR3 in HEK293T cells; format: cell-based; conditions: * VUF16840 as inverse agonist; mean ± SD (N)
T1 construct: expressed in transfected cells; host or cells: HEK293T
Experimental: (§1) For bioluminescence resonance energy transfer (BRET) experiments, several BRET acceptor constructs were used that consist of the pcDEF3 vector with either GRK2 (NCBI: NM_174710.2), β-arrestin1 (NCBI: NM_174243.3), or β-arrestin2 (NCBI: XM_005220181.4) fused at the C-terminus with a SpeI/NotI linker to mVenus (NCBI: KP666136.1), as previously described.[34]
(§2) For 1·10^6 HEK293T cells, a transfection mix consisting of 2 μg plasmid DNA, 12 μg linear PEI in a total volume of 200 μL 150 mM NaCl was made and thoroughly vortexed. The transfection mix was incubated for 15 minutes and consequently added to a cell suspension with a final concentration of 3·10^5 cells/mL. For functional studies this cell suspension was immediately transferred to a poly-L-lysine-coated white 96-well plate, with 3·10^4 cells per well. […] For BRET-based membrane localization experiments, the 2 μg plasmid DNA consisted of ACKR3-NL (0.05 μg), mVenus-CAAX (0.25 μg), and pcDEF3 vector DNA without insert (1.7 μg).
(§3) Mean pIC50 values were determined by averaging fitted values from individual experiments. Graphs depict the pooled data of all experiments. Similarly, sigmoidal, ligand-induced concentration-dependent activation or inhibition of the proximity between ACKR3 and the protein of interest was analyzed using GraphPad Prism 8, by fitting a 3-parameter concentration-response model to the data, to determine pEC50/pIC50 values. Mean pEC50 values and pIC50 values were determined by averaging fitted values from individual experiments. Graphs depict the pooled data of all experiments, for which values are normalized, per experiment, to the fold difference compared with basal signal.

[6] = biological target: T1, ACKR3; test: BRET β-arrestin1 recruitment to ACKR3 in HEK293T cells; format: cell-based; conditions: * VUF16840 as inverse agonist
Experimental: as §1, §2, §3
HEK293T cells were stimulated with increasing concentrations of VUF15485 or VUF16840 only (A–D), or increasing concentrations of VUF16840 in the presence of 100 nM VUF15485 (E–H). The resulting proximity between ACKR3 and β-arrestin1 (A, E), GRK2 (B, F), or Rab5a (C, G) was determined by bioluminescence resonance energy transfer. Furthermore, an interaction between clathrin A and β-arrestin2 was measured by NLuc complementation, as was determined by quantifying the relative light units (D, H). Depicted data is normalized as fold-basal and represents the mean ± SD of N experiments with triplicate measurements per experiment. N is specified in Supplemental Table 1.

[7] = biological target: hACKR3-SmBiT (HA-tagged ACKR3 C-terminally fused to SmBiT) (human) (UniProt P25106)
[8] = biological target: N-terminally NLuc-tagged hACKR3 (human) (UniProt P25106)
Sequence of N-terminally NLuc-tagged hACKR3 (human) (P25106 whole entry): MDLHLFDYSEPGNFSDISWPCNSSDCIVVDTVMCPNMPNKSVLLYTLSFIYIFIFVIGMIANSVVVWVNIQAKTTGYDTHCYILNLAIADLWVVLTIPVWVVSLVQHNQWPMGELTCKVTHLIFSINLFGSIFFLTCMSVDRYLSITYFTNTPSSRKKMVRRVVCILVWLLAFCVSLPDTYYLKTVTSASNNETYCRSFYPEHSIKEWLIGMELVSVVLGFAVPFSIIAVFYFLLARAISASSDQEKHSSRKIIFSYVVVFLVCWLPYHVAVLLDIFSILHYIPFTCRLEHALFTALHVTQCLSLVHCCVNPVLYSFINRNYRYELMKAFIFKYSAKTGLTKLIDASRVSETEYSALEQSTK

Sequence of CCR3 (P51677 whole entry): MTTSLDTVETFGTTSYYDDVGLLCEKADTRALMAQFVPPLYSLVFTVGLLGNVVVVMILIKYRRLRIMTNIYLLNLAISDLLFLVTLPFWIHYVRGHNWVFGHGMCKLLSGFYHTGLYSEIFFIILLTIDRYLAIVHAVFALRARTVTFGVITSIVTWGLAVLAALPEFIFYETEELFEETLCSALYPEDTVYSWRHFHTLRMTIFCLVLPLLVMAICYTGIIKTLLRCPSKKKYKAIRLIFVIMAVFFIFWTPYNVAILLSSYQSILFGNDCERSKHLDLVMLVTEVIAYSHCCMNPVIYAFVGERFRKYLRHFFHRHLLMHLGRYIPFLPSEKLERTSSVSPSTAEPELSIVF
Sequence of CCR3 (P32121 whole entry partner): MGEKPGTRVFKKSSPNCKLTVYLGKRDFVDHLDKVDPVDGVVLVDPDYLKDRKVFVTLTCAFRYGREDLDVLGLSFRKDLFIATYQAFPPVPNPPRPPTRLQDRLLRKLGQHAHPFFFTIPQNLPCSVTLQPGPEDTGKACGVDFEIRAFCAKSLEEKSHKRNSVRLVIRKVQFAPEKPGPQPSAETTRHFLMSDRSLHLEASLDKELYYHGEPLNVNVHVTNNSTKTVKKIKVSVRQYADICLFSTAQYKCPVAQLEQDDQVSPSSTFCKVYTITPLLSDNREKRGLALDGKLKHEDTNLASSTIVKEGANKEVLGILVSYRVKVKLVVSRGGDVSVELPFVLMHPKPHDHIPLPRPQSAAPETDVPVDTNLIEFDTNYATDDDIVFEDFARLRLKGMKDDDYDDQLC
Sequence of Human recombinant CXCL12 (P48061 22-93): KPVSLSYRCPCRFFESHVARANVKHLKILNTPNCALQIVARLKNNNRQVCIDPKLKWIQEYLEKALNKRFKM
T1 sequence (P25106 whole entry): as the sequence (P25106 whole entry) above
Sequence of CCL13 (Q99616 17-98): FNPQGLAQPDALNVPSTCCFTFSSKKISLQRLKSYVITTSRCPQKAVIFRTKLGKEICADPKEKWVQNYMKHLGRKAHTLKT
Sequence of hCCR3 C-terminally tagged with SmBiT (chemokine receptor screen) (human) (P51677 whole entry): as the sequence (P51677 whole entry) above
Sequence of hACKR3-SmBiT (HA-tagged ACKR3 C-terminally fused to SmBiT) (human) (P25106 whole entry, the tested form may be a part): as the sequence (P25106 whole entry) above

Compound: O=C(N[C@H]1CCN(CC2CC2)C[C@@H]1C(=O)NC1(c2ncccn2)CC1)c1cc(-c2ccc(F)cc2F)on1 [ACT1004-1239]
plasma and brain CXCL12 levels [1]: increase
plasma CXCL12 levels [2]: increase

β-arrestin2 recruitment to CCR3 (NanoBiT, HEK293T), EC50 of CCL13 [3]: 0.063 µM
Compound: CCL13 (from UniProt Q99616 17-98) (ligand)

Compound: CCL13: endogenous ligand (agonist) of CCR3
pEC50, activation of CCR3 (β-arrestin2 recruitment) [4]: 7.2 ± 0.1
EC50 ([4]; read-out: EC50, activation of CCR3 (β-arrestin2 recruitment)): 0.063 µM

β-arrestin2 BRET pEC50 [5]: 8.2 ± 0.1 (3)
β-arrestin1 BRET pEC50 [6]: 8.1 ± 0.1 (6)
Compound: CXCL11: human recombinant chemokine, endogenous agonist of ACKR3

β-arrestin2 recruitment to hACKR3 (NanoBiT, HEK293T, concentration-response after 30 minutes), EC50 of CXCL12 [7]: 0.0016 µM
bystander BRET between ACKR3-NLuc (C-terminal NLuc, not the construct of m2) and plasma membrane mVenus-CAAX in HEK293T cells (receptor internalization), pIC50 of CXCL12 [8]: 9.1 pIC50
Compound: Human recombinant CXCL12 (from UniProt P48061 22-93) (ligand)
